In paper PMC10786891, “Massively parallel profiling of RNA-targeting CRISPR-Cas13d”:
Numbering of substitutions follows the chain as printed. Names and notes keep the numbering of the source.

T1: EsCas13d, nuclease-dead (Eubacterium siraeum, UniProt B0MS50, R295A;H300A;R849A;H854A)
T1 sequence: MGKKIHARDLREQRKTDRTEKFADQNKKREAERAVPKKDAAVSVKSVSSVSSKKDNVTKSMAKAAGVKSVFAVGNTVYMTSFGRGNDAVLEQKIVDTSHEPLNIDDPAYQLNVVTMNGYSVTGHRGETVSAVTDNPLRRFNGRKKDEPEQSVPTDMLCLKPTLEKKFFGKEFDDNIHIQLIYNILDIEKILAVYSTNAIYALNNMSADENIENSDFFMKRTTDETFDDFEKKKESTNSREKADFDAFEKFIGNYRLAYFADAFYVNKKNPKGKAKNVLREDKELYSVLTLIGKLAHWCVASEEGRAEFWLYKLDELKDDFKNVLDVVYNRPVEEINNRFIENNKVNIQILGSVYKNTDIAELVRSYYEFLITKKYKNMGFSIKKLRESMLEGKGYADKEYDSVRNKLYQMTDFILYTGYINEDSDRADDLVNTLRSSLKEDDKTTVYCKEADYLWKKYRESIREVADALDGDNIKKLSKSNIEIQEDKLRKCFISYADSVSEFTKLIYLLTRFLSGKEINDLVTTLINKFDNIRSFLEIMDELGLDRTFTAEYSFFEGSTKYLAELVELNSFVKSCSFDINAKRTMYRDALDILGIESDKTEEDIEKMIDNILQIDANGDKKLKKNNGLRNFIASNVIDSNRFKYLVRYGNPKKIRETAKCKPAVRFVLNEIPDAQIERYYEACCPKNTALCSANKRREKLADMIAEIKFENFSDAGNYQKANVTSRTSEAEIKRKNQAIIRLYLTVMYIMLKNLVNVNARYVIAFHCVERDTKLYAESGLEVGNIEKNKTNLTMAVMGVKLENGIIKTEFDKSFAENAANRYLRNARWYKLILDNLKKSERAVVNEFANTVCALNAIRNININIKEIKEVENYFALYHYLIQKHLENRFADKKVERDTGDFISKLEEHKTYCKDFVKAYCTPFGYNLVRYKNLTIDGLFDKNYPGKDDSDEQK

B1: target 2 MT 5'PFS UUU 3'PFS CAA (mixed)
RNA 1: CACCCGUGCAAAAUUGCAGGGGUCUAAAACCUUCUCCAAAUUGUUUCAUCCU
RNA 2: GGGAAUGGAUCCACAUCUACGAAUUCUUUAGGAUGAAACAAUUUGGAGAAGCAAAGAUCGGAAGAGCACACGU
B2: target 2 MT 5'PFS AGG 3'PFS CGA (mixed)
RNA 1: B1 RNA 1
RNA 2: B1 RNA 2 with U27A, U28G, U29G, A53G
B3: target 2 MT 5'PFS AAG 3'PFS UAA (mixed)
RNA 1: B1 RNA 1
RNA 2: B1 RNA 2 with U27A, U28A, U29G, C52U
B4: target 2 MT 5'PFS UUU 3'PFS CAU (mixed)
RNA 1: B1 RNA 1
RNA 2: B1 RNA 2 with A54U
B5: target 2 MT 5'PFS ACG 3'PFS ACA (mixed)
RNA 1: B1 RNA 1
RNA 2: B1 RNA 2 with U27A, U28C, U29G, C52A, A53C
B6: target 2 MT 5'PFS ACU 3'PFS UCC (mixed)
RNA 1: B1 RNA 1
RNA 2: B1 RNA 2 with U27A, U28C, C52U, A53C, A54C
B7: target 2 MT 5'PFS ACU 3'PFS UCG (mixed)
RNA 1: B1 RNA 1
RNA 2: B1 RNA 2 with U27A, U28C, C52U, A53C, A54G
B8: target 2 MT 5'PFS AGG 3'PFS AUU (mixed)
RNA 1: B1 RNA 1
RNA 2: B1 RNA 2 with U27A, U28G, U29G, C52A, A53U, A54U
B9: target 2 MT 5'PFS GUA 3'PFS GAA (mixed)
RNA 1: B1 RNA 1
RNA 2: B1 RNA 2 with U27G, U29A, C52G
B10: target 2 MT 5'PFS GCU 3'PFS AGA (mixed)
RNA 1: B1 RNA 1
RNA 2: B1 RNA 2 with U27G, U28C, C52A, A53G
B11: target 2 MT 5'PFS UUU 3'PFS CAC (mixed)
RNA 1: B1 RNA 1
RNA 2: B1 RNA 2 with A54C
B12: target 2 MT 5'PFS GUA 3'PFS UAA (mixed)
RNA 1: B1 RNA 1
RNA 2: B1 RNA 2 with U27G, U29A, C52U
B13: target 2 MT 5'PFS UGA 3'PFS UUC (mixed)
RNA 1: B1 RNA 1
RNA 2: B1 RNA 2 with U28G, U29A, C52U, A53U, A54C
B14: target 2 MT 5'PFS CUU 3'PFS AUC (mixed)
RNA 1: B1 RNA 1
RNA 2: B1 RNA 2 with U27C, C52A, A53U, A54C
B15: target 2 MT 5'PFS UGA 3'PFS UUA (mixed)
RNA 1: B1 RNA 1
RNA 2: B1 RNA 2 with U28G, U29A, C52U, A53U
B16: target 2 MT 5'PFS GUA 3'PFS GAC (mixed)
RNA 1: B1 RNA 1
RNA 2: B1 RNA 2 with U27G, U29A, C52G, A54C
B17: target 2 MT 5'PFS GUA 3'PFS UAC (mixed)
RNA 1: B1 RNA 1
RNA 2: B1 RNA 2 with U27G, U29A, C52U, A54C
B18: target 2 MT 5'PFS GCU 3'PFS AGG (mixed)
RNA 1: B1 RNA 1
RNA 2: B1 RNA 2 with U27G, U28C, C52A, A53G, A54G
B19: target 2 MT 5'PFS ACU 3'PFS UCA (mixed)
RNA 1: B1 RNA 1
RNA 2: B1 RNA 2 with U27A, U28C, C52U, A53C
B20: target 2 MT 5'PFS ACU 3'PFS UCU (mixed)
RNA 1: B1 RNA 1
RNA 2: B1 RNA 2 with U27A, U28C, C52U, A53C, A54U
B21: target 2 MT 5'PFS GGC 3'PFS AAC (mixed)
RNA 1: B1 RNA 1
RNA 2: B1 RNA 2 with U27G, U28G, U29C, C52A, A54C
B22: target 2 MT 5'PFS UAC 3'PFS UUG (mixed)
RNA 1: B1 RNA 1
RNA 2: B1 RNA 2 with U28A, U29C, C52U, A53U, A54G
B23: target 2 MT 5'PFS GUA 3'PFS UAG (mixed)
RNA 1: B1 RNA 1
RNA 2: B1 RNA 2 with U27G, U29A, C52U, A54G
B24: target 2 MT 5'PFS UAC 3'PFS UUU (mixed)
RNA 1: B1 RNA 1
RNA 2: B1 RNA 2 with U28A, U29C, C52U, A53U, A54U
B25: target 2 MT 5'PFS UAC 3'PFS UUA (mixed)
RNA 1: B1 RNA 1
RNA 2: B1 RNA 2 with U28A, U29C, C52U, A53U
B26: target 2 MT 5'PFS GCU 3'PFS CCA (mixed)
RNA 1: B1 RNA 1
RNA 2: B1 RNA 2 with U27G, U28C, A53C
B27: target 2 MT 5'PFS GGC 3'PFS AAA (mixed)
RNA 1: B1 RNA 1
RNA 2: B1 RNA 2 with U27G, U28G, U29C, C52A
B28: target 2 MT 5'PFS GGC 3'PFS AAG (mixed)
RNA 1: B1 RNA 1
RNA 2: B1 RNA 2 with U27G, U28G, U29C, C52A, A54G
B29: target 2 MT 5'PFS GGC 3'PFS AAU (mixed)
RNA 1: B1 RNA 1
RNA 2: B1 RNA 2 with U27G, U28G, U29C, C52A, A54U
B30: target 2 MT 5'PFS AAG 3'PFS UAU (mixed)
RNA 1: B1 RNA 1
RNA 2: B1 RNA 2 with U27A, U28A, U29G, C52U, A54U
B31: target 2 MT 5'PFS AUU 3'PFS UGC (mixed)
RNA 1: B1 RNA 1
RNA 2: B1 RNA 2 with U27A, C52U, A53G, A54C
B32: target 2 MT 5'PFS GUA 3'PFS UAU (mixed)
RNA 1: B1 RNA 1
RNA 2: B1 RNA 2 with U27G, U29A, C52U, A54U
B33: target 2 MT 5'PFS CAA 3'PFS AGC (mixed)
RNA 1: B1 RNA 1
RNA 2: B1 RNA 2 with U27C, U28A, U29A, C52A, A53G, A54C
B34: target 2 MT 5'PFS ACG 3'PFS ACC (mixed)
RNA 1: B1 RNA 1
RNA 2: B1 RNA 2 with U27A, U28C, U29G, C52A, A53C, A54C
B35: target 1 insA 3' of 8,insU 3' of 2 (mixed)
RNA 1: CACCCGUGCAAAAAUGCAGGGGUCUAAAACUGAGCGGAUAACCUCUCUAUGG
RNA 2: GGGAAUGGAUCCACAUCUACGAAUUCGUACCAUAGAGAGGUUAUACCGCUCUACCGAGAUCGGAAGAGCACACGU
B36: target 1 insA 3' of 17 (mixed)
RNA 1: B35 RNA 1
RNA 2: GGGAAUGGAUCCACAUCUACGAAUUCGUACCAUAGAAGAGGUUAUCCGCUCACCGAGAUCGGAAGAGCACACGU
B37: target 1 A1G,A14G (mixed)
RNA 1: B35 RNA 1
RNA 2: GGGAAUGGAUCCACAUCUACGAAUUCGUACCAUAGAGGGGUUAUCCGCUCGCCGAGAUCGGAAGAGCACACGU
B38: target 1 A16U,G17U (mixed)
RNA 1: B35 RNA 1
RNA 2: B37 RNA 2 with G35U, A36U, G38A, G51A

Target: T1, EsCas13d, nuclease-dead
Experiment: crRNA (strand 1, pre-loaded); Mg2+; 40 mM Tris-HCl pH 7.5, 150 mM NaCl, 6 mM MgCl2, 1 mM DTT, 0.1% Tween-20, 0.2 mg/ml BSA; 25 C; 10 min per concentration, then washed
Details: tags: His6-TwinStrep-SUMO cleaved; N-terminal SNAP kept (SNAP-Surface 488); label: 3' end held by stalled T7 RNA polymerase

Row | Binder | Kd [nM]
1 | B1 | 7.6 ± 1
2 | B2 | 4.5 ± 0.5
3 | B3 | 3.7 ± 0.7
4 | B4 | 6.8 ± 0.8
5 | B5 | 9.7 ± 2.4
6 | B6 | 14.3 ± 3.5
7 | B7 | 6.7 ± 1
8 | B8 | 4.8 ± 0.8
9 | B9 | 6.7 ± 2.4
10 | B10 | 7.3 ± 2.1
11 | B11 | 7.5 ± 1
12 | B12 | 5.5 ± 0.6
13 | B13 | 26 ± 7
14 | B14 | 5.1 ± 0.9
15 | B15 | 10.7 ± 1.9
16 | B16 | 7.9 ± 1.4
17 | B17 | 7.7 ± 0.7
18 | B18 | 7.9 ± 0.8
19 | B19 | 7.3 ± 1.7

Row | Binder | Kd [nM]
20 | B20 | 8.4 ± 0.9
21 | B21 | 11.7 ± 1.4
22 | B22 | 8 ± 1.4
23 | B23 | 11 ± 1.8
24 | B24 | 11.9 ± 1.9
25 | B25 | 11.1 ± 2.3
26 | B26 | 25 ± 12
27 | B27 | 8.9 ± 1.5
28 | B28 | 13.1 ± 2
29 | B29 | 8.5 ± 0.9
30 | B30 | 3.6 ± 0.6
31 | B31 | 9.7 ± 1.4
32 | B32 | 7.8 ± 0.7
33 | B33 | 7.6 ± 2.2
34 | B34 | ~20
35 | B35 | 22.5 ± 1.4
36 | B36 | 11.8 ± 1.3
37 | B37 | 14.3 ± 0.8
38 | B38 | 22 ± 2.1
